Tests used:
[1] = biological target: soluble rabbit neonatal Fc receptor (rbFcRn), heterodimer of truncated rbFcRn α-chain and rabbit β2-microglobulin (rabbit)
[2] = biological target: soluble rabbit neonatal Fc receptor (rbFcRn), heterodimer of truncated rbFcRn α-chain and rabbit β2-microglobulin (rabbit); test: SPR; ProteOn XPR36, GLC chip; rbFcRn (about 1200 RU) or hFcRn (about 1600 RU) immobilised by amine coupling; IgG injected at 8.34-133 nM, 100 μl/min, PBS-T pH 6.0, 25°C; heterogeneous ligand model (two classes of non-interacting sites)
[3] = biological target: soluble human neonatal Fc receptor (hFcRn) (human) (UniProt P55899); test: as above
[4] = biological target: human IgG1 (Omalizumab) (human); test: SPR; ProteOn XPR36, GLC chip; rbIgG (about 1900 RU) or hIgG1 (about 2100 RU) immobilised by amine coupling; rbFcRn or hFcRn injected at 37.5-600 nM, 100 μl/min, PBS-T pH 6.0, 25°C; Langmuir 1:1 model

Substance | FcRn-mediated recycling assay in rabbit peritoneal macrophages: relative fluorescence intensity of Alexa 488-hIgG1 left in the cells after 20 min pulse at pH 6.0 and 30 min chase at pH 7.4 [1] [%] | KD1 (high affinity class of sites, heterogeneous ligand model) [2] [nM] | KD2 (low affinity class of sites, heterogeneous ligand model) [2] [nM] | KD1 (high affinity class of sites, heterogeneous ligand model) [3] [nM] | KD2 (low affinity class of sites, heterogeneous ligand model) [3] [nM] | Kd [4] [nM] | koff [4] [s⁻¹] | kon [4] [M⁻¹ s⁻¹]
human IgG2 (Abcam) (antibody) |  | 7.46 | 106 | 5.43 | 34.7 |  |  | 
human IgG3 (Abcam) (antibody) |  | 2.57 | 59.2 | 6.06 | 17.4 |  |  | 
soluble human neonatal Fc receptor (hFcRn) (from UniProt P55899 24-297; P61769 21-119) (complex) |  |  |  |  |  | 4.3 | 0.000592 | 138000

Results, then the substance that gave them:

FcRn-mediated recycling assay in rabbit peritoneal macrophages: relative fluorescence intensity of Alexa 488-hIgG1 left in the cells after 20 min pulse at pH 6.0 and 30 min chase at pH 7.4 [1] [%] | KD1 (high affinity class of sites, heterogeneous ligand model) [2] [nM] | KD2 (low affinity class of sites, heterogeneous ligand model) [2] [nM] | KD1 (high affinity class of sites, heterogeneous ligand model) [3] [nM] | KD2 (low affinity class of sites, heterogeneous ligand model) [3] [nM] | Kd [4] [nM] | koff [4] [s⁻¹] | kon [4] [M⁻¹ s⁻¹] | Substance
60 | 12.9 | 71.9 | 9.99 | 57.2 |  |  |  | human IgG1 (Omalizumab) (antibody)
 | 3.86 | 53.5 | 2.36 | 20.2 |  |  |  | human IgG4 (Abcam) (antibody)
 |  |  |  |  | 1.19 | 0.00039 | 327000 | soluble rabbit neonatal Fc receptor (rbFcRn), heterodimer of truncated rbFcRn α-chain and rabbit β2-microglobulin (complex)

— PMC5619814
